The results in this text go back to patent publication US20120058906A1 (published 2012).

The target of test [1] is T1, rHuman IGF-1 sR (IGF-1 sR), CF (R&D Systems Cat#391-GR) (human, UniProt P08069 31-932).
T1 construct: Bought soluble receptor; also called insulin-like growth factor-1 soluble receptor; IGF-R1
The test is described as follows: ECL (MSD Multi-Spot) titration, antigen spotted on plate; Fab 15 nM; blank spot 536.

Test [2] addresses T2, Recombinant Human DLL4 (R&D Systems Cat#1506-D4/CF) (human, UniProt Q9NR61 27-524).
T2 construct: Bought recombinant protein; also called delta-like protein 4
The description is as above.

For test [3], the target named is T3, rHuman ErbB2/Fc Chimera, CF (R&D Systems Cat#1129-ER) (human, UniProt P04626 23-652).
T3 construct: Bought Fc chimera; also called HER2/neu; human epidermal growth factor 2 receptor; Fc part of the bought chimera not given
The description is as above.

Test [4] deals with T4, rHuman CD44/Fc Chimera, CF (R&D Systems Cat#3660-CD) (human, UniProt P16070 21-220).
T4 construct: Bought Fc chimera; Fc part of the bought chimera not given
Described as above.

In test [5] the target is T1, rHuman IGF-1 sR (IGF-1 sR), CF (R&D …). The test is described as follows: ECL (MSD Multi-Spot) titration, antigen spotted on plate; Fab 60 nM; blank spot 1433.
In test [6] the target is T2, Recombinant Human DLL4 (R&D Systems …). The test is described as above.
The target in test [7] is T3, rHuman ErbB2/Fc Chimera, CF (R&D …). The description is as above.
The target of test [8] is T4, rHuman CD44/Fc Chimera, CF (R&D Systems …). The description is as above.
In test [9] the target is T1, rHuman IGF-1 sR (IGF-1 sR), CF (R&D …). The test is described as follows: ECL (MSD Multi-Spot) titration, antigen spotted on plate; Fab 3.75 nM; blank spot 191.
For test [10], the target named is T2, Recombinant Human DLL4 (R&D Systems …). The description is as above.
For test [11], the target named is T3, rHuman ErbB2/Fc Chimera, CF (R&D …). Described as above.
Test [12] concerns the target T4, rHuman CD44/Fc Chimera, CF (R&D Systems …). Described as above.
Test [13] deals with T1, rHuman IGF-1 sR (IGF-1 sR), CF (R&D …). Description: ECL (MSD Multi-Spot) titration, antigen spotted on plate; Fab 0.9375 nM; blank spot 153.
The target in test [14] is T2, Recombinant Human DLL4 (R&D Systems …). Described as above.
Test [15] has as its target T3, rHuman ErbB2/Fc Chimera, CF (R&D …). The description is as above.
Test [16] deals with T4, rHuman CD44/Fc Chimera, CF (R&D Systems …). Described as above.
The target in test [17] is T5, rHuman IGF-1 sR, (IGF-1 sR), CF (R&D Systems Cat#391-GR) (human, UniProt P08069 31-932).
T5 construct: also called insulin-like growth factor-1 soluble receptor; IGF-R1
The test is described as follows: MSD ECL multi-spot plate; Fab 70 nM; blank spot 635.

In test [18] the target is T6, Recombinant Human DLL4 (R&D Systems Cat#1506-D4/CF) (human, UniProt Q9NR61 27-524).
T6 construct: also called delta-like protein 4
The test is described as above.

The target in test [19] is T7, rHuman ErbB2/Fc Chimera, CF (R&D Systems Cat#1129-ER) (human, UniProt P04626 23-652).
T7 construct: also called HER2/neu; human epidermal growth factor 2 receptor; Fc part of the bought chimera not given
The test is described as above.

Test [20] has as its target T8, rHuman HGF R/c-MET/Fc Chimera, CF (R&D Systems Cat#358-MT/CF) (human, UniProt P08581 25-932).
T8 construct: also called HGF R/Fc; hepatocyte growth factor receptor; Fc part of the bought chimera not given
Described as above.

Test [21] has as its target T9, rHuman Notch-1/Fc Chimera, CF (R&D Systems Cat#3647-TK) (human, UniProt P46531 19-526).
T9 construct: Fc part of the bought chimera not given
Described as above.

Test [22] has as its target T10, rHuman CD44/Fc Chimera, CF (R&D Systems Cat#3660-CD) (human, UniProt P16070 21-220).
T10 construct: Fc part of the bought chimera not given
The test is described as above.

For test [23], the target named is T5, rHuman IGF-1 sR, (IGF-1 sR), CF (R&D …). Description: MSD ECL multi-spot plate; Fab 17.5 nM; blank spot 304.
The target in test [24] is T6, Recombinant Human DLL4 (R&D Systems …). Described as above.
Test [25] has as its target T8, rHuman HGF R/c-MET/Fc Chimera, CF (R&D …). The description is as above.
Test [26] addresses T9, rHuman Notch-1/Fc Chimera, CF (R&D …). The test is described as above.
Test [27] concerns the target T5, rHuman IGF-1 sR, (IGF-1 sR), CF (R&D …). Description: MSD ECL multi-spot plate; Fab 280 nM; blank spot 1691.
For test [28], the target named is T6, Recombinant Human DLL4 (R&D Systems …). Described as above.
Test [29] has as its target T7, rHuman ErbB2/Fc Chimera, CF (R&D …). The test is described as above.
Test [30] has as its target T8, rHuman HGF R/c-MET/Fc Chimera, CF (R&D …). The test is described as above.
Test [31] concerns the target T9, rHuman Notch-1/Fc Chimera, CF (R&D …). The test is described as above.
Test [32] has as its target T10, rHuman CD44/Fc Chimera, CF (R&D Systems …). The test is described as above.
The target in test [33] is T5, rHuman IGF-1 sR, (IGF-1 sR), CF (R&D …). The test is described as follows: MSD ECL multi-spot plate; Fab 4.375 nM; blank spot 305.
In test [34] the target is T6, Recombinant Human DLL4 (R&D Systems …). The description is as above.
Test [35] addresses T7, rHuman ErbB2/Fc Chimera, CF (R&D …). Described as above.
For test [36], the target named is T8, rHuman HGF R/c-MET/Fc Chimera, CF (R&D …). The description is as above.
Test [37] has as its target T9, rHuman Notch-1/Fc Chimera, CF (R&D …). The description is as above.
Test [38] has as its target T10, rHuman CD44/Fc Chimera, CF (R&D Systems …). Described as above.
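Note: blank spot per well as comparator with Hit at signal to blank ratio of 4 or more.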

B1: Fab VH1-3_IGHD4-23*01_IGHJ4*01 & L12_IGKJ1*01 (Fab, V domains shown)
VH: QVQLVQSGAEVKKPGASVKVSCKASGYTFTSYAMHWVRQAPGQRLEWMGWSNAGNGNTKYSQEFQGRVTITRDTSASTAYMELSSLRSEDMAVYYCARDDYGGNSDYFDYWGQGTLVTVSS
VL: not shown
As to B1, the ECL signal stood at 859 in [1]; 7730 in test [2]; 740 in test [3]; 748 in [4]; 2670 in [5]; 17300 in [6]. Also, the ECL signal was found to be 2160 in test [7]; 2360 in [8]; 314 in test [9]; 1570 in [10]; 291 in [11]; 307 in test [12]. Besides, the ECL signal worked out at 204 in [13], 453 in test [14], 268 in test [15] and 251 in test [16].

B2: Fab VH1-46_IGHD2-15*01_IGHJ2*01 & L12_IGKJ1*01 (Fab, V domains shown)
VH: QVQLVQSGAEVKKPGASVKVSCKASGYTFTSYYMHWVRQAPGQGLEWMGIINPSGGSTSYAQKFQGRVTMTRDTSTSTVYMELSSLRSEDTAVYYCAREGYCSGGSCYSYWYFDLWGRGTLVTVSS
VL: not shown
Regarding B2, the ECL signal in test [17] amounted to 1320 ECL signal; in test [18] it was 2750 ECL signal; in [19], 1360 ECL signal; in [20], 1290 ECL signal; in [21], 1490 ECL signal; in test [22], 1370 ECL signal. In addition, the ECL signal was found to be 626 ECL signal in [23]; 1220 ECL signal in [24]; 565 ECL signal in test [25]; 680 ECL signal in test [26]; 3530 ECL signal in test [27]; 8110 ECL signal in [28]. The ECL signal amounted to 3950 ECL signal in [29]; 3560 ECL signal in test [30]; 4380 ECL signal in [31]; 4070 ECL signal in test [32]; 369 ECL signal in test [33]; 558 ECL signal in test [34]. For the same molecule, the ECL signal in test [35] was 384 ECL signal; in test [36], 193 ECL signal; in test [37], 480 ECL signal; in test [38], 424 ECL signal.
